The numbers were not newly measured in article PMC12874384, which cites them from elsewhere.

One series deals with Asp260 (UniProt position 260, SCGVADLITTC). Briefly: kinetics (pH-rate profile). Conditions: kcat/Km profile for reaction of DHAP dianion in the presence of NADH.
In series [1] the target is T1, Lys204 (UniProt position 204, ICGALKNVVAV). Briefly: kinetics (pH-rate profile). Conditions: kcat/Km profile for reaction of DHAP dianion in the presence of NADH.
For series [2], the system named is Glu165. In words: kinetics (competitive inhibition, pH dependence of Ki). Conditions: enzyme•PGA trianion complex (closed, inhibitor-bound).
Series [3] has as its target Glu165 (UniProt position 165, VVLAYEPVWAI). The series is described as above. Conditions: enzyme•PGA trianion complex (closed, inhibitor-bound).
Series [4] addresses Glu165 (UniProt position 165, VVVAYEPVWAI). The series is described as above. As to conditions: enzyme•PGA trianion complex (closed, inhibitor-bound).
The target in series [5] is T1, Lys204. In words: kinetics (pH-rate profile of chemical rescue). Conditions: K120A variant with EtNH3+ activator, DHAP and NADH.

In the case of “Glycerol 3-phosphate dehydrogenase [NAD+], human liver (hlGPDH) (Homo sapiens)”, the figures for the pKa with Asp260 and in the series with Lys204 [1] were 4.4 and 7.6, respectively.
Regarding “TbbTIM I170A variant (I172A in TbbTIM numbering) (Trypanosoma brucei brucei; I170A)”, the pKa in the series with Glu165 [2] is 7.7.
Consider “TbbTIM P166A variant (P168A in TbbTIM numbering) (Trypanosoma brucei brucei; P166A)”, for which, in the series with Glu165 [2], the pKa is 9.3.
For the substance “TbbTIM P166A/I170A double variant (P168A/I172A in TbbTIM numbering) (Trypanosoma brucei brucei; P166A;I170A)”, the pKa in the series on Glu165 [2] is given as 7.8.
In the case of “Triosephosphate isomerase, Trypanosoma brucei brucei (TbbTIM) (Trypanosoma brucei brucei)”, in the series on Glu165 [2], the pKa entry is reported as “≈ 11”.
Take “Triosephosphate isomerase, chicken (cTIM) (Gallus gallus)”: the pKa entry with Glu165 [3] is listed as “≈ 11”.
As for “Triosephosphate isomerase, yeast (yTIM) (Saccharomyces cerevisiae)”, the pKa result with Glu165 [4] is given as “≈ 11”.
In the case of “cTIM loop 7 replacement variant (L7RM, 208-TGAG-211) (Gallus gallus; Y208T;G210A;S211G)”, in the series with Glu165 [3], the pKa is reported as 6.7.
On to “hlGPDH K120A variant (Homo sapiens; K120A)”, for which the pKa with Lys204 [5] is given as 7.7; with Asp260 it was 5.0; in the series with Lys204 [1], 7.6.
With “yTIM S211A variant (Saccharomyces cerevisiae; S211A)”, the pKa with Glu165 [4] is 8.2.
Regarding “yTIM Y208F variant (Saccharomyces cerevisiae; Y208F)”, the pKa with Glu165 [4] is recorded as 6.3.
